The experiment has as its target RSVF on RSV A2 strain carrying a luciferase gene (RSV-Luc) (RSV A2 strain, UniProt P03420 26-574). Nature of the experiment: cell-based or functional assay.

Sequence of RSVF on RSV A2 strain carrying a luciferase gene (RSV-Luc) (P03420 26-574): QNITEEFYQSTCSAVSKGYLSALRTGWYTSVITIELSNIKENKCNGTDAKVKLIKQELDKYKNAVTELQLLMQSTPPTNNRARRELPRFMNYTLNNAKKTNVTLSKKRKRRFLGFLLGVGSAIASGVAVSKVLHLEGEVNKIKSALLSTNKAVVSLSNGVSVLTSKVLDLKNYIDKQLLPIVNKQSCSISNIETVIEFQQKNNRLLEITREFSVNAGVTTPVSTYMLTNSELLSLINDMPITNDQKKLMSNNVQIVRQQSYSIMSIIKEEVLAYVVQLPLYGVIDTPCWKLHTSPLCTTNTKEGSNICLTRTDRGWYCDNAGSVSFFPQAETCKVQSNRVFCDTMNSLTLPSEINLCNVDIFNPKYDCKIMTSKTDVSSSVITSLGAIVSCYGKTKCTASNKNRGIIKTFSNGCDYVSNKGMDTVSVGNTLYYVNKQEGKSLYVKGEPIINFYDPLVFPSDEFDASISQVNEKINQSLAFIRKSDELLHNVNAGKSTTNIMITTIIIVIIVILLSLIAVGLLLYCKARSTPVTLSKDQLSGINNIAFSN

B1: Palivizumab (antibody, V domains shown)
VH: QVTLRESGPALVKPTQTLTLTCTFSGFSLSTSGMSVGWIRQPPGKALEWLADIWWDDKKDYNPSLKSRLTISKDTSKNQVVLKVTNMDPADTATYYCARSMITNWYFDVWGAGTTVTVSS
VL: DIQMTQSPSTLSASVGDRVTITCKCQLSVGYMHWYQQKPGKAPKLLIYDTSKLASGVPSRFSGSGSGTEFTLTISSLQPDDFATYYCFQGSGYPFTFGGGTKLEIK
B1: the “RSV neutralization IC50 (luciferase signal of RSV-Luc on HepG2 cells)” value stood at 0.32 µg/mL.

The record behind these values is EP3628678A1 (Ecole Polytechnique Federale De Lausanne (EPFL) EPFL-TTO, dated 2020).
